# Assay results taken from doi:10.1101/2022.03.24.485560.
# Biological target: TRIM7 PRY-SPRY domain (338-511 aa) (human) (UniProt Q9C029)
# Test: ITC
substance,measurement,value
C-terminal peptide fragment of RACO-1,Kd,10 µM
C-terminal peptide fragment of glycogenin-1 (GN1),Kd,8 µM
CVB3 2C (117-329 aa) (domain or fragment),Kd,6 µM
CVB3 2C-derived peptide (319-329 aa),Kd,3 µM
